Results from PMC9482650, “Quantitative fragmentomics allow affinity mapping of interactomes” (Nature Communications, 2022).
Values belong to the binder of their own block, whether it stands above or below them.

Assays:
Test in all cases: holdup assay
Set-up in all cases: key: below the threshold = too weak to quantify, mostly under pKd 3.1 to 4
GORASP2, Q9H8Y8 = target: GORASP2, Q9H8Y8
DFNB31_2, Q9P202 = target: T1, DFNB31_2, Q9P202
T1 sequence (Q9P202 274-371, limits assumed, looked up): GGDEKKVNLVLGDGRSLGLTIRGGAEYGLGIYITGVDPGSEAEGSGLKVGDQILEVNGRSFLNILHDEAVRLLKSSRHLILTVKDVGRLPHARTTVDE

MAGI2_6, Q86UL8 = target: MAGI2_6, Q86UL8
Chain of MAGI2_6, Q86UL8 (Q86UL8 1141-1229): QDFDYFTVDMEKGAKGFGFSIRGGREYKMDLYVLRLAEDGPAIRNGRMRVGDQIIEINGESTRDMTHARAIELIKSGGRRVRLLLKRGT

PARD3B_1, Q8TEW8 = target: T2, PARD3B_1, Q8TEW8
T2 sequence (Q8TEW8 196-299, limits assumed, looked up): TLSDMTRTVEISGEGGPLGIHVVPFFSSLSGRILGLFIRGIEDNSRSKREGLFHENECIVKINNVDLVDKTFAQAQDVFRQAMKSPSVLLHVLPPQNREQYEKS

MAGI1_1, Q96QZ7 = target: MAGI1_1, Q96QZ7
Chain of MAGI1_1, Q96QZ7 (Q96QZ7 1-106): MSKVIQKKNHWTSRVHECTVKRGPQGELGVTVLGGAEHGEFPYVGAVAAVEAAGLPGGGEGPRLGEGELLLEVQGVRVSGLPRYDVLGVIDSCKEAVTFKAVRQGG

IL16_3, Q14005 = target: IL16_3, Q14005
Chain of IL16_3, Q14005 (Q14005 1107-1207): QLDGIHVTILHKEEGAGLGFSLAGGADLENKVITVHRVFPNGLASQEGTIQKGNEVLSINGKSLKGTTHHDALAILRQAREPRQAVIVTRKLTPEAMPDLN

APBA2_2, Q99767 = target: T3, APBA2_2, Q99767
T3 sequence (Q99767 654-744, limits assumed, looked up): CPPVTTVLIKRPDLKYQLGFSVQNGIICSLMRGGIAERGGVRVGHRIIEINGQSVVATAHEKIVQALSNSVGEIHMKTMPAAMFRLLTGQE

GRASP, Q7Z6J2 = target: GRASP, Q7Z6J2
Chain of GRASP, Q7Z6J2 (Q7Z6J2 96-193): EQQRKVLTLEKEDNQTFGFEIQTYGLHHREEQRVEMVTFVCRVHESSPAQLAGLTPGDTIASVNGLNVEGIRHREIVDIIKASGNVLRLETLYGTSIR

HTRA4, P83105 = target: T4, HTRA4, P83105
T4 sequence (P83105 378-476, limits assumed, looked up): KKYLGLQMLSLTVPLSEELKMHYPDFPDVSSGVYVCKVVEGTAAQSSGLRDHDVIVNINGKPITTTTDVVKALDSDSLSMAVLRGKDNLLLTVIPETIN

LNX1_2, Q8TBB1 = target: LNX1_2, Q8TBB1
Chain of LNX1_2, Q8TBB1 (Q8TBB1 371-470): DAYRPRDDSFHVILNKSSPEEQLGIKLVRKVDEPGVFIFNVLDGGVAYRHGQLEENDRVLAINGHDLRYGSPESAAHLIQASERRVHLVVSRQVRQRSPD

DLG2_2, Q15700 = target: DLG2_2, Q15700
Chain of DLG2_2, Q15700 (Q15700 189-283): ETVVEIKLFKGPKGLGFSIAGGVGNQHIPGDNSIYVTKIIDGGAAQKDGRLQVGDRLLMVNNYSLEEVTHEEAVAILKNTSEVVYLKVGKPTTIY

APBA1_1, Q02410 = target: T5, APBA1_1, Q02410
T5 sequence (Q02410 651-752, limits assumed, looked up): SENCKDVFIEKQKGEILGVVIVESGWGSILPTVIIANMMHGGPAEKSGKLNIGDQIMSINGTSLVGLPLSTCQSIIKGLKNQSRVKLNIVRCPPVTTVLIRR

DFNB31_3, Q9P202 = target: T6, DFNB31_3, Q9P202
T6 sequence (Q9P202 811-907, limits assumed, looked up): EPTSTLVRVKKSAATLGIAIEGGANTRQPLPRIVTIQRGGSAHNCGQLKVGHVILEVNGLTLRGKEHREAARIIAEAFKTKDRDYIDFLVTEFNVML

FRMPD1, Q5SYB0 = target: T7, FRMPD1, Q5SYB0
T7 sequence (Q5SYB0 52-145, limits assumed, looked up): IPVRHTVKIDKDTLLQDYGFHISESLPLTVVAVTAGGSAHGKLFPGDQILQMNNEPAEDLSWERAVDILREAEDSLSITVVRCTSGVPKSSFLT

GRIP2_7, Q9C0E4 = target: GRIP2_7, Q9C0E4
Chain of GRIP2_7, Q9C0E4 (Q9C0E4 934-1023): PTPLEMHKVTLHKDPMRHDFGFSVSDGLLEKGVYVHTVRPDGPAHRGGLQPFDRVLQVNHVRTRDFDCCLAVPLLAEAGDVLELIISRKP

LIN7A, O14910 = target: T8, LIN7A, O14910
T8 sequence (O14910 103-200, limits assumed, looked up): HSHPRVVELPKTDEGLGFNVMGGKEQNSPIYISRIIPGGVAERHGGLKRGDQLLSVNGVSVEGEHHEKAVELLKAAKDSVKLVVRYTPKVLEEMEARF

HTRA1, Q92743 = target: HTRA1, Q92743
Chain of HTRA1, Q92743 (Q92743 360-477): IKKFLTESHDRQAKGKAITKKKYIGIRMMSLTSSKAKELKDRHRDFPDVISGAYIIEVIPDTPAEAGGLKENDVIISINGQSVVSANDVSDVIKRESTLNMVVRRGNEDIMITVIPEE

SCRIB_1, Q14160 = target: SCRIB_1, Q14160
Chain of SCRIB_1, Q14160 (Q14160 718-814): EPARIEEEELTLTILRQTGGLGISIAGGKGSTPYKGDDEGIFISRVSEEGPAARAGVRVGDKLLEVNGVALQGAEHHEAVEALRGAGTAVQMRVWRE

GRIP1_2, Q9Y3R0 = target: T9, GRIP1_2, Q9Y3R0
T9 sequence (Q9Y3R0 145-248, limits assumed, looked up): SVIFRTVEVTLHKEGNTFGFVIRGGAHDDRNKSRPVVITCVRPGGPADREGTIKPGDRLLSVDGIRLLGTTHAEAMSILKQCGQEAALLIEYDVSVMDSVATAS

MPP2, Q14168 = target: T10, MPP2, Q14168
T10 sequence (Q14168 180-250, limits assumed, looked up): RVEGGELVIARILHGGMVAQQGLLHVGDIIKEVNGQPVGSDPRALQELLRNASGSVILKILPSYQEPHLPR

DLG3_1, Q92796 = target: T11, DLG3_1, Q92796
T11 sequence (Q92796 125-227, limits assumed, looked up): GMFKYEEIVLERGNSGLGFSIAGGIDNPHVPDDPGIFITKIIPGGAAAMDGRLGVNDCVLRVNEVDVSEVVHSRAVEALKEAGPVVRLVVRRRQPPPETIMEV

MAGI2_4, Q86UL8 = target: MAGI2_4, Q86UL8
Chain of MAGI2_4, Q86UL8 (Q86UL8 772-865): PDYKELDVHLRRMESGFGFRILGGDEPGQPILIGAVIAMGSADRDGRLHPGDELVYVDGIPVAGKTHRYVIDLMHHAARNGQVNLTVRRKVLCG

SNTA1, Q13424 = target: T12, SNTA1, Q13424
T12 sequence (Q13424 82-180, limits assumed, looked up): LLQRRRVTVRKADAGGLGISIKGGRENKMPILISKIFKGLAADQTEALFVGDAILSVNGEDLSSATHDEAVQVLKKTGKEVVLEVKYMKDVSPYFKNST

MAST2, Q6P0Q8 = target: MAST2, Q6P0Q8
Chain of MAST2, Q6P0Q8 (Q6P0Q8 1099-1202): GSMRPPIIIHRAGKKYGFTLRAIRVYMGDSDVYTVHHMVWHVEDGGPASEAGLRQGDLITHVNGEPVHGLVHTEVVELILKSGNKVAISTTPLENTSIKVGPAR

FRMPD4, Q14CM0 = target: FRMPD4, Q14CM0
Chain of FRMPD4, Q14CM0 (Q14CM0 67-160): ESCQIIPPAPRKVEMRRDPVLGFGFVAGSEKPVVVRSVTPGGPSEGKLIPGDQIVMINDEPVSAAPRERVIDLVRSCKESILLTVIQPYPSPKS

[1] = plain residues with an end cap or a label only (N-terminal biotin on a linker: ahx)
[2] = plain residues with an end cap or a label only (N-terminal biotin on a linker: ttds)

pKd (GORASP2, Q9H8Y8; [1]): 4.12
pKd (DFNB31_2, Q9P202; [1]): below the threshold
pKd (MAGI2_6, Q86UL8; [1]): 4.02
pKd (PARD3B_1, Q8TEW8; [1]): below the threshold
pKd (MAGI1_1, Q96QZ7; [1]): below the threshold
pKd (IL16_3, Q14005; [1]): below the threshold
pKd (APBA2_2, Q99767; [1]): below the threshold
pKd (GRASP, Q7Z6J2; [1]): 4.12
pKd (HTRA4, P83105; [1]): 3.97
pKd (LNX1_2, Q8TBB1; [1]): 3.54
pKd (DLG2_2, Q15700; [1]): 4.01
pKd (APBA1_1, Q02410; [1]): below the threshold
pKd (DFNB31_3, Q9P202; [1]): below the threshold
pKd (FRMPD1, Q5SYB0; [1]): below the threshold
pKd (GRIP2_7, Q9C0E4; [1]): 3.72
pKd (LIN7A, O14910; [1]): below the threshold
pKd (HTRA1, Q92743; [1]): 4.43
pKd (SCRIB_1, Q14160; [1]): 3.8
pKd (GRIP1_2, Q9Y3R0; [1]): below the threshold
pKd (MPP2, Q14168; [1]): below the threshold
pKd (DLG3_1, Q92796; [1]): below the threshold
pKd (MAGI2_4, Q86UL8; [1]): 4.13
pKd (SNTA1, Q13424; [1]): 3.63
pKd (MAST2, Q6P0Q8; [1]): 4.33
pKd (FRMPD4, Q14CM0; [1]): below the threshold
Binder: KTSAHHATFV [RGS12, O14924]

pKd (GORASP2, Q9H8Y8; [2]): 4.25
pKd (DFNB31_2, Q9P202; [2]): below the threshold
pKd (MAGI2_6, Q86UL8; [2]): 4.55
pKd (PARD3B_1, Q8TEW8; [2]): below the threshold
pKd (MAGI1_1, Q96QZ7; [2]): below the threshold
pKd (IL16_3, Q14005; [2]): below the threshold
pKd (APBA2_2, Q99767; [2]): below the threshold
pKd (GRASP, Q7Z6J2; [2]): below the threshold
pKd (HTRA4, P83105; [2]): 3.74
pKd (LNX1_2, Q8TBB1; [2]): 3.62
pKd (DLG2_2, Q15700; [2]): 5.21
pKd (APBA1_1, Q02410; [2]): below the threshold
pKd (DFNB31_3, Q9P202; [2]): below the threshold
pKd (FRMPD1, Q5SYB0; [2]): below the threshold
pKd (GRIP2_7, Q9C0E4; [2]): 3.64
pKd (LIN7A, O14910; [2]): below the threshold
pKd (HTRA1, Q92743; [2]): below the threshold
pKd (SCRIB_1, Q14160; [2]): 4.58
pKd (GRIP1_2, Q9Y3R0; [2]): below the threshold
pKd (MPP2, Q14168; [2]): below the threshold
pKd (DLG3_1, Q92796; [2]): 4.59
pKd (MAGI2_4, Q86UL8; [2]): 3.99
pKd (SNTA1, Q13424; [2]): 4.62
pKd (MAST2, Q6P0Q8; [2]): 5.56
pKd (FRMPD4, Q14CM0; [2]): below the threshold
Binder: MERLRVETDV [ARHGEF16, Q5VV41]

pKd (GORASP2, Q9H8Y8; [2]): below the threshold
pKd (DFNB31_2, Q9P202; [2]): below the threshold
pKd (MAGI2_6, Q86UL8; [2]): 4.63
pKd (PARD3B_1, Q8TEW8; [2]): below the threshold
pKd (MAGI1_1, Q96QZ7; [2]): below the threshold
pKd (IL16_3, Q14005; [2]): below the threshold
pKd (APBA2_2, Q99767; [2]): below the threshold
pKd (GRASP, Q7Z6J2; [2]): 3.67
pKd (HTRA4, P83105; [2]): below the threshold
pKd (LNX1_2, Q8TBB1; [2]): below the threshold
pKd (DLG2_2, Q15700; [2]): 4.69
pKd (APBA1_1, Q02410; [2]): below the threshold
pKd (DFNB31_3, Q9P202; [2]): below the threshold
pKd (FRMPD1, Q5SYB0; [2]): below the threshold
pKd (GRIP2_7, Q9C0E4; [2]): below the threshold
pKd (LIN7A, O14910; [2]): below the threshold
pKd (HTRA1, Q92743; [2]): 3.96
pKd (SCRIB_1, Q14160; [2]): 4.71
pKd (GRIP1_2, Q9Y3R0; [2]): below the threshold
pKd (MPP2, Q14168; [2]): below the threshold
pKd (DLG3_1, Q92796; [2]): 4.26
pKd (MAGI2_4, Q86UL8; [2]): below the threshold
pKd (SNTA1, Q13424; [2]): 5.37
pKd (MAST2, Q6P0Q8; [2]): 5.76
pKd (FRMPD4, Q14CM0; [2]): 3.93
Binder: IQREDQETAV [DGKZ, Q13574]
